Data taken from PMC4643112, “Diversity of hydrolases from hydrothermal vent sediments of the Levante Bay, Vulcano Island (Aeolian archipelago) identified by activity-based metagenomics and biochemical characterization of new esterases and an arabinopyranosidase” (Applied Microbiology and Biotechnology, 2015).

Substrate: CCCC(=O)Oc1ccc([N+](=O)[O-])cc1
Assay: colorimetric p-nitrophenol release
Format: biochemical, Rhodothermus profundi
Conditions: 50 mM potassium phosphate pH 7.0, 0.1 % Triton X-100, standard assay, substrate varied 1-40 mM as printed

B1: LIPESV12_26 (Rhodothermus profundi) (protein)
chain: MPHPTIQTVDLAYRSYGTEGPPLLILHGLLGSSGNWHTLARNAFSPHFRVFALDLRGHGRSPHAHPIDYPTMAADVQAFMDRHHLESAHVLGHSMGGKVAMELALSAPERVRRLVVVDIAPRSYPARHRTILDALQAIDPARYANRQAIDQALATYVPEAPIRQFLLKNLLYNPATRRYTWQVDLDGLVRYYDRINAAITDGRQFTGPVLFVRGARSDYLTEADWPTIRQLFPDACLATIPEAGHWVHADAPEAFAHLVLAFLQEKSGCVSSSKS
notes: full length, 275 residues, His6-tagged (pET-46c Ek/LIC), E. coli BL21(DE3); primers (translated) start MPHPTIQ, end VSSSKS; catalytic S94, D218, H245
- Km: 100 µM
